These results are taken from US20210332142A1 (Genentech, published 2021).

One experiment addresses T1, omalizumab.
T1 construct: Used as irrelevant coated protein; also called irrelevant Fc-containing protein; not shown: the constant regions
The experiment in a line: phage ELISA. For orientation: An ELISA detects its analyte on a solid surface through an enzyme-linked reagent.

Experiment [1] has as its target T2, recombinant cyno Tie2 extracellular domain (cynomolgus monkey, UniProt Q02763 23-748 (human entry)).
T2 construct: also called Recombinant cyno Tie2 ECD; cy Tie2
T2 chain: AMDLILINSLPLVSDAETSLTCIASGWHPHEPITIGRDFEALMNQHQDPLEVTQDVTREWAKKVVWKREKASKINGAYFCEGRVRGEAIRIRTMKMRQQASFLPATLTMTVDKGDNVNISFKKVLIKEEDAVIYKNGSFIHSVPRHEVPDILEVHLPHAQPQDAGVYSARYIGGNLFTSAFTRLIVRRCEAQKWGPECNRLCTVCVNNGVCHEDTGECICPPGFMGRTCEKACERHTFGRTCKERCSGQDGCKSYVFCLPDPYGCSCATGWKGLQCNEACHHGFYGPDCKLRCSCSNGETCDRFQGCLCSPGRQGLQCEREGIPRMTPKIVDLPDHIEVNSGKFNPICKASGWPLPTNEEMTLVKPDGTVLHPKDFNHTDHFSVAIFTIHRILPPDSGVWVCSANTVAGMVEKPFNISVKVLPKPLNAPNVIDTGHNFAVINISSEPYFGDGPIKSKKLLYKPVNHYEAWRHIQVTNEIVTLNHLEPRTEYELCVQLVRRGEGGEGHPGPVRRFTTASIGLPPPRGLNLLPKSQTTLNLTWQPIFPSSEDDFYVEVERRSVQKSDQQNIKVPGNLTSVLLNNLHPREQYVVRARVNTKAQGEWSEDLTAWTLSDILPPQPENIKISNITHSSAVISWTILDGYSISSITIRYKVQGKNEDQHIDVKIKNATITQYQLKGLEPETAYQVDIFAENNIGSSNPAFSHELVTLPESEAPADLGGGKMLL
As to the kind of experiment: SPR, IgG captured, 37C. The protocol: A human antibody capture chip was prepared using a Series S CM5 chip (GE Life Sciences), a human antibody capture kit (GE Life Sciences) and an amine coupling kit (GE Life Sciences). Antibodies diluted to 5 μg/ml in running buffer (10 mM HEPES, 150 mM NaCl, 0.05% Tween 20, 1 mM EDTA, pH 7.4) were non-covalently captured using a contact time of 20 seconds and a flow rate of 10 μl/minute. Binding to 300 nM and 1500 nM recombinant Tie2 was analyzed at 37° C. using a Single Cycle Kinetics method with a contact time of 60 seconds, a dissociation time of 120 seconds and a flow rate of 50 μl/min. Between cycles, the surface was regenerated by a 30 second injection of 3M MgCl₂ at a flow rate of 30 μl/min. Values for antibody capture levels and analyte binding levels were obtained from the Report Point Table (Biacore Evaluation Software v3.0, GE Life Sciences). […] Table 16: Experiment A; Table 17: Experiment B.
In general terms: Surface plasmon resonance follows binding to a sensor surface in real time, without labels.

The target of a further experiment is T3, human Tie2ECD.flag (human, UniProt Q02763 23-748).
T3 construct: also called hTie2.flag; not shown: C-terminal Flag tag
As to the kind of experiment: Biacore, hIgG captured, 25C. The protocol:
(§1) Monovalent affinities of selected anti-Tie2 hIgGs were determined using a Biacore T200 instrument (GE Life Sciences). Anti-humanFc was covalently immobilized on a Series S CM5 Biacore sensor chip to enable non-covalent capture of anti-Tie2 antibodies and binding of human or rat Tie2ECD.flag was monitored in real time at 25° C. using a multi-cycle kinetics experiment format. Between cycles, the surface was regenerated with 3 M MgCl₂. Monovalent affinities were determined by kinetic analysis, using Biacore Evaluation Software (GE Life Sciences) to fit a 1:1 binding model to the data.

For the next experiment, the target named is T4, rat Tie2ECD.flag (rat, UniProt A0ABK0L6J5 19-740).
T4 construct: extracellular domain; also called rTie2.flag; not shown: C-terminal Flag tag
The experiment in a line: Biacore, hIgG captured, 25C. Here is the method: as §1

The target in experiment [2] is T5, recombinant human Tie2 extracellular domain (human, UniProt Q02763 23-748).
T5 construct: whole entry named; also called Recombinant human Tie2 ECD; hu Tie2
As to the kind of experiment: SPR, IgG captured, steady state analysis. The protocol:
(§2) Binding to recombinant human and cyno Tie2 was analyzed using a high performance multi-cycle kinetics format with a contact time of 60 seconds, a dissociation time of 60 seconds, a flow rate of 100 μl/minute and Tie2 concentrations of 5 μM, 2.5 μM, 1.25 μM, 625 nM, 313 nM and 156 nM. Tie2 concentrations of 5 μM, 2.5 μM and 1.25 μM were injected twice. Results were analyzed using Biacore T200 Evaluation Software v3.0 (GE Life Sciences). Results from all three surface densities were analyzed together using the 1:1 Binding model with multiple Rmax and the RI parameter set to zero.

Experiment [3] concerns the target T2, recombinant cyno Tie2 extracellular …. As to the kind of experiment: SPR, IgG captured, steady state analysis. The protocol:
as §2

The target in experiment [4] is T5, recombinant human Tie2 extracellular …. As to the kind of experiment: SPR multi-cycle kinetics, IgG captured, kinetic analysis. The protocol:
Binding to 300 nM and 1500 nM recombinant Tie2 was analyzed at 37° C. using a Single Cycle Kinetics method with a contact time of 60 seconds, a dissociation time of 120 seconds and a flow rate of 50 μl/min. Between cycles, the surface was regenerated by a 30 second injection of 3M MgCl₂ at a flow rate of 30 μl/min. Values for antibody capture levels and analyte binding levels were obtained from the Report Point Table (Biacore Evaluation Software v3.0, GE Life Sciences). […] Table 16: Experiment A; Table 17: Experiment B.
as §2

The target is the same in experiment [5]. As to the kind of experiment: SPR multi-cycle kinetics, IgG captured, kinetic analysis; human Tie2; kinetic analysis. The protocol: as §2

T3 sequence (Q02763 23-748 limits assumed): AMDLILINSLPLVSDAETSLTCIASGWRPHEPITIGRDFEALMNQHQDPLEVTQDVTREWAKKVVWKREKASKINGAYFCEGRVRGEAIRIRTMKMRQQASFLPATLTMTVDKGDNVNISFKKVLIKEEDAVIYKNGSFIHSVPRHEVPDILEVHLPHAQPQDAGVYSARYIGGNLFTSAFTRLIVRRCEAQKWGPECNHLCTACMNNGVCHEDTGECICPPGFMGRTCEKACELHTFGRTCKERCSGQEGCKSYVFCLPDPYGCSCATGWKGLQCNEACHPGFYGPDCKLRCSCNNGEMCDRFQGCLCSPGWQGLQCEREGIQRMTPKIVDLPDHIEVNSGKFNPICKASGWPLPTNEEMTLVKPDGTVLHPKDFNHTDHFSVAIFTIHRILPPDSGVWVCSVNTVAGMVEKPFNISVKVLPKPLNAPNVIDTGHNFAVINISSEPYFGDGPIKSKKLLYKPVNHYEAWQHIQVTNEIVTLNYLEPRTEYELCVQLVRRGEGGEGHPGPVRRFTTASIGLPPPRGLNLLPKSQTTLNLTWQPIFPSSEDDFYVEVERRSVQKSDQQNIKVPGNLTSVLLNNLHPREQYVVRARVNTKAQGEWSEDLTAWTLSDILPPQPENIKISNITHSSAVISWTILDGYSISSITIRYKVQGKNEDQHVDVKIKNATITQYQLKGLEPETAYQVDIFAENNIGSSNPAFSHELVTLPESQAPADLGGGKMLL

B1: Tie2.1 (antibody, human IgG1, V domains shown)
VH: EVQLVESGGGLVQPGGSLRLSCAASGFTFSNTDISWVRQAPGKGLEWVGRISPSDGNTYYADSVKGRFTISADTSKNTAYLQMNSLRAEDTAVYYCARRTRWASWAMDYWGQGTLVTVSS
VL: DIQMTQSPSSLSASVGDRVTITCRASQDVSTAVAWYQQKPGKAPKLLIYSASFLYSGVPSRFSGSGSGTDFTLTISSLQPEDFATYYCQQSYTTPPTFGQGTKVEIKR
notes: human IgG1 in all later assays; also called Ab1; Tie2.1.M100c
For B1, the binding result with omalizumab is recorded as “no binding”. The “Normalized Binding Signal, 300 nM” value in experiment [1] was found to be 0.08. The Kd came to 1200 nM in the experiment with human Tie2ECD.flag; 1600 nM in the experiment with rat Tie2ECD.flag; 3000 nM in experiment [2]; 3000 nM in experiment [3]; 3000 nM in experiment [5]. In addition, the koff in experiment [4] stood at 0.45 s⁻¹. Also, the kon in experiment [4] is 180000 M⁻¹ s⁻¹.

In general, Kd refers to the free concentration of one partner at which half of the binding sites on the other are occupied at equilibrium, for simple one-to-one binding. A word on the koff: it is a measure of how fast the partners let go of each other. Broadly, the kon is a measure of how fast the partners come together.
